In data set [1] the target is UctC (Acetobacter aceti strain 1023) (UniProt A9X6P9). In words: SEC; analytical gel filtration, Superdex 200 Hi-load 16/60, 50 mM Tris-HCl pH 8.0, 100 mM KCl; apparent solution molecular weights from retention times. For orientation: SEC sorts molecules by how far they enter the pores of the column.
Substrate in data set [2]: CC(=O)SCCNC(=O)CCNC(=O)[C@H](O)C(C)(C)COP(=O)(O)OP(=O)(O)OC[C@H]1O[C@@H](n2cnc3c(N)ncnc32)[C@H](O)[C@@H]1OP(=O)(O)O
In words: HPLC of oxalyl-CoA formation, Michaelis-Menten fit. Type of data set: biochemical, Escherichia coli. The conditions noted are these: 50 mM oxalate (subsaturating, value likely lower than true), 50 mM potassium phosphate, pH 6.7, parameter symbol, unit prefix and kcat unit not given, inferred.

Data set [3] concerns the molecule itself. In words: SEC; analytical gel filtration, Superdex 200 Hi-load 16/60, 50 mM Tris-HCl pH 8.0, 100 mM KCl; apparent solution molecular weights from retention times.
Substrate in data set [4]: CC(=O)SCCNC(=O)CCNC(=O)[C@H](O)C(C)(C)COP(=O)(O)OP(=O)(O)OC[C@H]1O[C@@H](n2cnc3c(N)ncnc32)[C@H](O)[C@@H]1OP(=O)(O)O
Nature of the data set: HPLC of oxalyl-CoA formation, Michaelis-Menten fit. Format: biochemical, Escherichia coli. As to conditions: 50 mM oxalate (subsaturating, value likely lower than true), 50 mM potassium phosphate, pH 6.7, parameter symbol, unit prefix and kcat unit not given, inferred. The source says: HPLC of oxalyl-CoA formation, Michaelis-Menten fit on H6YfdE
This is another data set of the same source.

We go through five molecules from article PMC3720670, “Function and X-Ray crystal structure of Escherichia coli YfdE” (PLoS ONE, 2013).

In general, stoichiometry N refers to the number of molecules, sites or subunits per partner or assembly. Consider “UctC (from UniProt A9X6P9 1-389) (enzyme)”, for which the stoichiometry N in data set [1] came to 2.

B1: YfdE (Escherichia coli K-12) (protein)
chain: MTNNESKGPFEGLLVIDMTHVLNGPFGTQLLCNMGARVIKVEPPGHGDDTRTFGPYVDGQSLYYSFINHGKESVVLDLKNDHDKSIFINMLKQADVLAENFRPGTMEKLGFSWETLQEINPRLIYASSSGFGHTGPLKDAPAYDTIIQAMSGIMMETGYPDAPPVRVGTSLADLCGGVYLFSGIVSALYGREKSQRGAHVDIAMFDATLSFLEHGLMAYIATGKSPQRLGNRHPYMAPFDVFNTQDKPITICCGNDKLFSALCQALELTELVNDPRFSSNILRVQNQAILKQYIERTLKTQAAEVWLARIHEVGVPVAPLLSVAEAIKLPQTQARNMLIEAGGIMMPGNPIKISGCADPHVMPGAATLDQHGEQIRQEFSS
notes: untagged full-length, recombinant in E. coli BL21(DE3), plasmid pJK566 (Arg232 repaired), only partially purified; dimer
A word on the Km: it is the substrate concentration at which the rate is half of its maximum. For orientation: kcat means the number of substrate molecules converted per active site and unit of time at saturation. For the molecule B1, in data set [2] (partially pure enzyme), the Km worked out at 17 µM and the kcat worked out at 11 s⁻¹.

B2: YfdE fused to an N-terminal hexahistidine tag (H6YfdE) (enzyme, Escherichia coli, UniProt P76518 1-381, looked up)
chain: B1 chain
notes: YfdE, Escherichia coli; yfdE gene amplified from genomic DNA of a strain BW25113 derivative; last residue Ser381; Expressed from pET28a (NdeI/XhoI); The appendage and the first five to six residues are disordered in the crystal; also called acetyl-CoA:oxalate CoA-transferase; ACOCT; source: E. coli C41(DE3), purified (ammonium sulfate, metal-charged nitrilotriacetic acid column); not shown: His6, …
Turning to B2, the “stoichiometry N” value in data set [3] came out at 2.

B3: H6YfdE (Escherichia coli K-12) (protein)
chain: B1 chain
notes: full-length with N-terminal hexahistidine tag kept, pET28a (pJK593), E. coli C41(DE3); last residue Ser381; dimer
Take B3: in data set [4], the Km amounted to 18 µM and the kcat is 12 s⁻¹.

B4: YfdEH6 (Escherichia coli K-12) (protein)
chain: B1 chain
notes: full-length with C-terminal hexahistidine tag kept (stop codon converted to Ser), pJK594, E. coli C41(DE3)
For the molecule B4, in data set [2], the Km is 13 µM and the kcat amounted to 6.9 s⁻¹.
